{"source": "paper PMC9063849", "about": "“Crystal structure of the middle and C-terminal domains of Hsp90α labeled with a coumarin derivative reveals a potential allosteric binding site as a drug target” (Acta Crystallographica. Section D, Structural Biology, 2022)", "key": {"[1]": {"biological_target": "the molecule itself", "test": "crystal structure; MDCC-labelled Hsp90αMC crystallised in 0.1 M succinic acid pH 6.5, 12% PEG 3350, 20 mM calcium chloride; 3.5 Å; hexamer through crystallographic symmetry"}, "[2]": {"biological_target": "the molecule itself", "test": "dynamic light scattering; 3 mg/ml Hsp90αMC in 20 mM HEPES pH 7.2, 150 mM NaCl, 25°C; without or with 0.5 mM inhibitors (chlorobiocin, derrubone, coumermycin A1 or MDCC; 5% DMSO); dimers to hexamer"}, "[3]": {"biological_target": "the molecule itself", "test": "SEC; size-exclusion chromatography of the purified protein, 20 mM HEPES Na pH 7.2, 150 mM NaCl"}, "[4]": {"biological_target": "the molecule itself", "test": "SEC + other: dynamic light scattering; Hsp90αC+ at 1.0 mg/ml and FL Hsp90α at 2.1 mg/ml for DLS, 20 mM HEPES pH 7.2, 150 mM NaCl, 25°C; without inhibitors"}}}
{"protein": "MDCC–Hsp90αMC (Hsp90α 293–699 covalently linked to MDCC at Cys374) (domain or fragment, MDCC {7-diethylamino-3-[N-(2-maleimidoethyl)carbamoyl]coumarin} covalently linked to Cys374, Hsp90α, human, residues 293-699 (middle and C-terminal domains), labelled with MDCC at Cys374; Three molecules in the asymmetric unit; the hexamer is formed through crystallographic symmetry; also called MDCC-labeled Hsp90αMC; source: E. coli, purified; 0.2 mM Hsp90αMC incubated with 0.5 mM MDCC on ice for 30 min, supernatant used; not shown: 6xHis, N-terminal, cleaved) not shown", "values": [{"measurement": "stoichiometry N", "setting": "[1]", "value": 6}]}
{"protein": "Hsp90α_293–699 (Hsp90αMC), middle and C-terminal domains of human Hsp90α (domain or fragment, Hsp90α (90 kDa heat-shock protein alpha), human, residues 293-699 (middle and C-terminal domains); TEV site between the tag and the protein; also called Hsp90α MD and CTD; apo Hsp90αMC; source: E. coli, purified (Ni-NTA, TEV cleavage, second Ni-NTA, size-exclusion chromatography); not shown: 6xHis, N-terminal, cleaved) not shown", "values": [{"measurement": "stoichiometry N", "setting": "[2]", "value": 6}, {"measurement": "stoichiometry N", "setting": "[3]", "value": 2}]}
{"protein": "Hsp90α_433–696 (Hsp90αC+) (domain or fragment, Hsp90α, human, residues 433-696; The results speak of 'the CTD'; also called the CTD; source: E. coli, purified (same procedure as for Hsp90αMC); not shown: 6xHis, N-terminal, cleaved) not shown", "values": [{"measurement": "stoichiometry N", "setting": "[4]", "value": 4}]}
{"protein": "Hsp90α_23–699_E47A (FL Hsp90α) (domain or fragment, Hsp90α, human, residues 23-699 with E47A; N-terminal truncation (printed as Δ23) and C-terminal tail removed; also called full-length (FL) Hsp90α; source: E. coli, purified (same procedure as for Hsp90αMC); not shown: 6xHis, N-terminal, cleaved) not shown", "values": [{"measurement": "stoichiometry N", "setting": "[4]", "value": 6}]}
